# Experimental data from article PMC7192620.
# T1: RBM3 (UniProt P98179 1-157)
# T1 sequence: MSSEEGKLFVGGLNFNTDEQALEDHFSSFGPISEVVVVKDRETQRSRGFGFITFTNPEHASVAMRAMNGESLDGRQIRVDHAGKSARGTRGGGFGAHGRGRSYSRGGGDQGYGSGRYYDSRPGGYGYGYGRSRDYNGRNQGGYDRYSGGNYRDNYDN
# B1: Sequence 7 RC (ssDNA)
# DNA: TCGTCGGCAGCGTCAGATGTGTATAAGAGACAGAGAGACAAAACAGAATCCCCCCCCCCAATTAAGTAACGTACTGCAGTCATGCTAG
# modifications: 5' biotin (5Biosg)
# B2: Sequence 7 (ssDNA)
# DNA: CTAGCATGACTGCAGTACGTTACTTAATTGGGGGGGGGGATTCTGTTTTGTCTCTCTGTCTCTTATACACATCTGACGCTGCCGACGA
# modifications: 5' biotin (5Biosg)
# How the values were obtained:
# [1] = target: T1, RBM3; assay: ELONA titration
# [2] = target: YBX1 (YB-1) (UniProt P67809 1-324); assay: ELONA titration
# Chain of YBX1 (YB-1) (P67809 whole entry): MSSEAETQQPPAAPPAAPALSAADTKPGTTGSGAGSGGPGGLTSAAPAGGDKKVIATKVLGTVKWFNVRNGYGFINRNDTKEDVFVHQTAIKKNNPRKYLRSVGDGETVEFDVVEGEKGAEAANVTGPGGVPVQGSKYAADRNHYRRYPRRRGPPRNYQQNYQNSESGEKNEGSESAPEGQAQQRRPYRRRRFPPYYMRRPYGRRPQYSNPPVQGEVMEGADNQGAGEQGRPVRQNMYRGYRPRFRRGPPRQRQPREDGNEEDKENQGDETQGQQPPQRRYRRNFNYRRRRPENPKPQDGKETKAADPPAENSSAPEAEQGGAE
Binder,binding result [1],Kd [2] [nM]
B1,no binding,
B2,,~3
